Measurements reported in patent US20220169688A1 (Dana-Farber, published 2022).
Bridge positions count the residues as written; N and C are the ends. Square brackets hold non-standard residues; d marks the D form. Primed or numbered codes have the meaning given here. Ends that are not written are not given here. R8 = C=CCCCCCC[C@@](C)(N)C(=O)O; S5 = C=CCCC[C@](C)(N)C(=O)O; FITC′ = not defined here; Nle = CCCC[C@H](N)C(=O)O

B1: C-terminally biotinylated SAH-UBE2A (peptide)
peptide: Ac-[Nle]STP[R8]RRRL[Nle]R[S5]FKRLQ-biotin
modifications: staple 5-12
notes: also called biotinylated peptide; not shown: C-terminal biotin handle
B2: FITC-SAH-UBE2A (FITC conjugated to SEQ ID NO: 132) (peptide)
peptide: [Nle]STP[R8]RRRL[Nle]R[S5]FKRLQ-{FITC′}
modifications: staple 5-12
notes: also called FITC-labeled SAH-UBE2A-11; FITC-labeled peptide

How the values were obtained:
[1] = target: T1, recombinant human E1 activating enzyme UBA1 (human, UniProt P22314 1-1058, limits assumed); experiment: streptavidin-biotin pull-down, silver-stained protein gel
T1 construct: also called UBE1
T1 sequence: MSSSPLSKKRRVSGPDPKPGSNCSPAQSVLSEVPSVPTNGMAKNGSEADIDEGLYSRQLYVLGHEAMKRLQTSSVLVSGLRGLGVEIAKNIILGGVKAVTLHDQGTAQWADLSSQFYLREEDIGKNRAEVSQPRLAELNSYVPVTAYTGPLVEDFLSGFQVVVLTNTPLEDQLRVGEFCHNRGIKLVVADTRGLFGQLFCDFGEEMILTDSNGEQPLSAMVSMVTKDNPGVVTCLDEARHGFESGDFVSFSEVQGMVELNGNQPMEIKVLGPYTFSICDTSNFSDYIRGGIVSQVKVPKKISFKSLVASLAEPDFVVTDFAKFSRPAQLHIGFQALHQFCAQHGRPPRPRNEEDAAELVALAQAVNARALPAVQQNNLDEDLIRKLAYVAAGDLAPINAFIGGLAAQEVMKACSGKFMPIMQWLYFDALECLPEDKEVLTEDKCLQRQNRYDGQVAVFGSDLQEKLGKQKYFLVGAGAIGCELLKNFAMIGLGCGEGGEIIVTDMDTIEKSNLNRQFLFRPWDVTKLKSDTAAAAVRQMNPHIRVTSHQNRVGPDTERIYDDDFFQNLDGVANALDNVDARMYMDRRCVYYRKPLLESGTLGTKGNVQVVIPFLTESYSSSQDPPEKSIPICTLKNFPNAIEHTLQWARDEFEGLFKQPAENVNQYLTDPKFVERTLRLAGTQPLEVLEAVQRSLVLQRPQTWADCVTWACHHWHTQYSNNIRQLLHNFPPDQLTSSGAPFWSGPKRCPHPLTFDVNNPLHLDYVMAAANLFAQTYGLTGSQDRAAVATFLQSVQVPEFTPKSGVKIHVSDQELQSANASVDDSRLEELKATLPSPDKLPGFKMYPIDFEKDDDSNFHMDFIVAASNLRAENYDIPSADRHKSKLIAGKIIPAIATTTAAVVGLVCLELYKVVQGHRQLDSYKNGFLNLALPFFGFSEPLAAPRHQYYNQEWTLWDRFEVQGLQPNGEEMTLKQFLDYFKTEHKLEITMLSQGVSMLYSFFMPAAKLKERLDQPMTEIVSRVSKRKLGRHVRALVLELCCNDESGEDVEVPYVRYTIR
Description: (§1) 30 μL of pre-equilibrated streptavidin agarose beads were then added and incubated for an additional 1.5 hours at 4° C. The beads were pelleted by centrifugation and washed three times with NP-40 buffer (20 mM HEPES, pH 7.4, 50 mM NaCl, 5 mM DTT, 0.5% [v/v] NP-40) before eluting the protein sample from the beads by heating at 70° C. for 10 min in 3×SDS loading buffer. Samples were subjected to electrophoresis and silver staining (Pierce 24612). […] 30 μL of pre-equilibrated streptavidin agarose beads (ThermoFisher 20357) were then added and incubated for an additional 1.5 hours at 4° C. The beads were pelleted by centrifugation and washed three times with NP-40 buffer (20 mM HEPES, pH 7.4, 50 mM NaCl, 5 mM DTT, 0.5% [v/v] NP-40) before eluting the protein sample from the beads by heating at 70° C. for 10 min in 3×SDS loading buffer. Proteins were separated by SDS-PAGE gel electrophoresis and detected by western blot against UBE1 (Abcam ab34711). […] Conjugation of ubiquitin to E2 by E1 is monitored by conversion of free E2 (17 kDa) to E2˜ubiquitin conjugate (26 kDa). Quantitation of percent inhibition was calculated from densitometry of silver stain images.

[2] = target: T2, native UBA1 in HeLa cell lysate (human, UniProt P22314 2-1058, limits assumed); experiment: streptavidin-biotin pull-down from HeLa cell lysate, western blot
T2 construct: Endogenous protein in HeLa cell lysate or S100 fraction; also called UBE1
T2 sequence: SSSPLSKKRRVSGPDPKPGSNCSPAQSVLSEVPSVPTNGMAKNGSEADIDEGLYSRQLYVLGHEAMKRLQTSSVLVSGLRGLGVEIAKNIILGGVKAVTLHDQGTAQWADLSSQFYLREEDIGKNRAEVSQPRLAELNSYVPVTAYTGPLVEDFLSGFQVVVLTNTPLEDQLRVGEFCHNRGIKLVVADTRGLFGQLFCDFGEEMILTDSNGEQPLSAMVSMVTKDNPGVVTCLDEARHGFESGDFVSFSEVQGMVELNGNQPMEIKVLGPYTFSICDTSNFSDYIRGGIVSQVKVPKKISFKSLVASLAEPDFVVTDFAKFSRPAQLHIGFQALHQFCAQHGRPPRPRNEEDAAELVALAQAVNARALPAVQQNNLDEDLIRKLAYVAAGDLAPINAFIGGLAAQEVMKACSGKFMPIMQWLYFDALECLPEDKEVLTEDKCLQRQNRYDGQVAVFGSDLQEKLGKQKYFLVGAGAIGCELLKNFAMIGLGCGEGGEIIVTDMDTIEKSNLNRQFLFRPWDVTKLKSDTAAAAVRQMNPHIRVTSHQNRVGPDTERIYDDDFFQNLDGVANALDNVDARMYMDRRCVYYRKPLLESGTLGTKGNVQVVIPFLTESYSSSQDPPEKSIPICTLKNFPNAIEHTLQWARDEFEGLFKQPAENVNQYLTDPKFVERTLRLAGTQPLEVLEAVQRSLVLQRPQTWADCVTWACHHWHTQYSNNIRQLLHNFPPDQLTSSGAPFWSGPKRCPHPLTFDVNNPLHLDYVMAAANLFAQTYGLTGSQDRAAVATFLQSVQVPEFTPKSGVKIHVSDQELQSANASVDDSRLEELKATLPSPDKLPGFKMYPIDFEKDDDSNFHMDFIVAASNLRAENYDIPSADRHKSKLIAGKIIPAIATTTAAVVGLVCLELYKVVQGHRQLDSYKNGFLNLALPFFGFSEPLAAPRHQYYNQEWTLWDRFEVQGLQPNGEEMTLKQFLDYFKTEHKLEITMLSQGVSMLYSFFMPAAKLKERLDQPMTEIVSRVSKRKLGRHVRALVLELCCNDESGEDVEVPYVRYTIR
Description: as §1

[3] = target: T1, recombinant human E1 activating enzyme …; experiment: fluorescence polarization, without and with ubiquitin and ATP
Excerpt: In vitro Binding Assays: To assess the binding and affinity of ligands to acceptor proteins, a fluorescence polarization assay (FPA) can be used, for example. The FPA technique measures the molecular orientation and mobility using polarized light and fluorescent tracer.

[4] = target: T3, His-tagged UBA1 captured on Ni-NTA agarose beads (human, UniProt P22314 1-1058, limits assumed); experiment: fluorescence microscopy of Ni-NTA agarose beads carrying His-UBA1; 10 µM FITC-labeled peptide
T3 construct: also called His-UBA1; His-UBE1; not shown: His tag
T3 sequence: T1 sequence
Description: Fluorescence Microscopy: His-tagged UBA1 (25 μg) was incubated with Ni-NTA agarose beads (100 μl) (Invitrogen™ R90110) in PBS for 30 min. […] Beads were plated in 386-well plate format (10 μl/well) (Corning 384-well High Content Imaging Glass Bottom Microplate) and imaged with an Olympus wide-field epifluorescence microscope, a 63× LCPlanFL NA 0.7 objective, and a CoolSNAP DYNO camera.

His-tagged p53 = target: T4, His-tagged p53 (UniProt P04637 1-393, limits assumed); experiment: fluorescence microscopy of Ni-NTA agarose beads carrying His-p53, incubated with FITC-labeled peptide
T4 construct: Control protein captured on Ni-NTA agarose beads; also called His-p53; unrelated protein control; not shown: His tag
T4 sequence (P04637 whole entry): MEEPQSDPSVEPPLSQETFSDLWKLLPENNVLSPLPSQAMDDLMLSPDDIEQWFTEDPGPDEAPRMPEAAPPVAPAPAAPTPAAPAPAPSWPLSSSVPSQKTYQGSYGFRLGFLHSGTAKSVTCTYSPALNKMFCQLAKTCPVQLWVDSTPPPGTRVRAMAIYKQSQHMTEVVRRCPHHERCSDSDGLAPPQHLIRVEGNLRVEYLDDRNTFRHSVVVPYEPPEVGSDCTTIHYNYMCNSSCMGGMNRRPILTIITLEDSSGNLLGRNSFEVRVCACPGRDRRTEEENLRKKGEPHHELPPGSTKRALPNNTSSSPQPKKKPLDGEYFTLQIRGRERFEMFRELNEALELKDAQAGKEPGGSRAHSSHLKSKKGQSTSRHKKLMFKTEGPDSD

Binder	binding result [1]	binding result [2]	binding result [3]	binding result [4]	binding result (His-tagged p53)
B1	binds	binds			
B2			binds	binds	no binding (tested: 10 µM)
